Assay results from patent publication US20230212587A1, “Mutant Hydroxyphenylpyruvate Dioxygenase Polypeptide, Encoding Gene Thereof and Use Therefor” (Beijing Dabeinong Biotechnology Co., Ltd., priority 2019, published 2023).

B1: SbHPPDm-F372A-02: Sorghum bicolor HPPD mutant F372A, SEQ ID NO: 66 (protein)
chain: MPPTPTTAAATGAAVAAASAEQAAFRLVGHRNFVRVNPRSDRFHTLAFHHVELWCADAASAAGRFSFGLGAPLAARSDLSTGNTAHASLLLRSGALAFLFTAPYAHGADAATASLPSFSAAEARRFAADHGLAVRAVALRVADAEDAFRASVAAGARPAFEPVELGLGFRLAEVELYGDVVLRYVSYPDDADASFLPGFVGVTSPGAADYGLRRFDHIVGNVPELAPAAAYFAGFTGFHEFAEFTAEDVGTTESGLNSMVLANNAENVLLPLNEPVHGTKRRSQIQTYLDHHGGPGVQHMALASDDVLRTLREMQARSAMGGFEFMAPPAPEYYDGVRRRAGDVLTEAQIKECQELGVLVDRDDQGVLLQIATKPVGDRPTLFLEIIQRIGCMEKDEKGQEYQKGGCGGFGKGNFSQLFKSIEDYEKSLEAKQAAAAQGS
modifications: SbHPPDm-F372A Amino Acid Sequence
B2: AtHPPD: native Arabidopsis thaliana HPPD, SEQ ID NO: 23 (protein, listed as Arabidopsis thaliana)
chain: MGHQNAAVSENQNHDDGAASSPGFKLVGFSKFVRKNPKSDKFKVKRFHHIEFWCGDATNVARRFSWGLGMRFSAKSDLSTGNMVHASYLLTSGDLRFLFTAPYSPSLSAGEIKPTTTASIPSFDHGSCRSFFSSHGLGVRAVAIEVEDAESAFSISVANGAIPSSPPIVLNEAVTIAEVKLYGDVVLRYVSYKAEDTEKSEFLPGFERVEDASSFPLDYGIRRLDHAVGNVPELGPALTYVAGFTGFHQFAEFTADDVGTAESGLNSAVLASNDEMVLLPINEPVHGTKRKSQIQTYLEHNEGAGLQHLALMSEDIFRTLREMRKRSSIGGFDFMPSPPPTYYQNLKKRVGDVLSDDQIKECEELGILVDRDDQGTLLQIFTKPLGDRPTIFIEIIQRVGCMMKDEEGKAYQSGGCGGFGKGNFSELFKSIEEYEKTLEAKQLVG
modifications: Arabidopsis thaliana HPPD Amido Acid Sequence
B3: AtHPPDm-F372A: Arabidopsis thaliana HPPD mutant F372A, SEQ ID NO: 25 (protein)
chain: MGHQNAAVSENQNHDDGAASSPGFKLVGFSKFVRKNPKSDKFKVKRFHHIEFWCGDATNVARRFSWGLGMRFSAKSDLSTGNMVHASYLLTSGDLRFLFTAPYSPSLSAGEIKPTTTASIPSFDHGSCRSFFSSHGLGVRAVAIEVEDAESAFSISVANGAIPSSPPIVLNEAVTIAEVKLYGDVVLRYVSYKAEDTEKSEFLPGFERVEDASSFPLDYGIRRLDHAVGNVPELGPALTYVAGFTGFHQFAEFTADDVGTAESGLNSAVLASNDEMVLLPINEPVHGTKRKSQIQTYLEHNEGAGLQHLALMSEDIFRTLREMRKRSSIGGFDFMPSPPPTYYQNLKKRVGDVLSDDQIKECEELGILVDRDDQGTLLQIATKPLGDRPTIFIEIIQRVGCMMKDEEGKAYQSGGCGGFGKGNFSELFKSIEEYEKTLEAKQLVG
modifications: AtHPPDm-F372A Amino Acid Sequence
B4: OsHPPD-02: native Oryza sativa HPPD, SEQ ID NO: 69 (protein, listed as Oryza sativa)
chain: MPPTPTPTATTGAVSAAAAAGENAGFRLVGHRRFVRANPRSDRFQALAFHHVELWCADAASAAGRFAFALGAPLAARSDLSTGNSAHASLLLRSASVAFLFTAPYGGDHGVGADAATTASIPSFSPGAARRFAADHGLAVHAVALRVADAADAFRASVAAGARPAFQPADLGGGFGLAEVELYGDVVLRFVSHPDGADAPFLPGFEGVSNPGAVDYGLRRFDHVVGNVPELAPVAAYISGFTGFHEFAEFTAEDVGTAESGLNSVVLANNAETVLLPLNEPVHGTKRRSQIQTYLDHHGGPGVQHIALASDDVLGTLREMRARSAMGGFEFLAPPPPNYYDGVRRRAGDVLSEEQINECQELGVLVDRDDQGVLLQIFTKPVGDRPTFFLEMIQRIGCMEKDESGQEYQKGGCGGFGKGNFSELFKSIEEYEKSLEAKQAPTVQGS
modifications: OsHPPD Amino Acid Sequence
B5: OsHPPDm-F372A-02: Oryza sativa HPPD mutant F372A, SEQ ID NO: 72 (protein)
chain: MPPTPTPTATTGAVSAAAAAGENAGFRLVGHRRFVRANPRSDRFQALAFHHVELWCADAASAAGRFAFALGAPLAARSDLSTGNSAHASLLLRSASVAFLFTAPYGGDHGVGADAATTASIPSFSPGAARRFAADHGLAVHAVALRVADAADAFRASVAAGARPAFQPADLGGGFGLAEVELYGDVVLRFVSHPDGADAPFLPGFEGVSNPGAVDYGLRRFDHVVGNVPELAPVAAYISGFTGFHEFAEFTAEDVGTAESGLNSVVLANNAETVLLPLNEPVHGTKRRSQIQTYLDHHGGPGVQHIALASDDVLGTLREMRARSAMGGFEFLAPPPPNYYDGVRRRAGDVLSEEQINECQELGVLVDRDDQGVLLQIATKPVGDRPTFFLEMIQRIGCMEKDESGQEYQKGGCGGFGKGNFSELFKSIEEYEKSLEAKQAPTVQGS
modifications: OsHPPDm-F372A Amino Acid Sequence

Tested on: Arabidopsis thaliana T1 plants
Experiment: Topramezone tolerance of transgenic Arabidopsis thaliana T1 plants (pesticide damage grade by bleached leaf area, score, resistance evaluation)
Format: in vivo
Conditions: HPPDs from different species, 7 DAT; for Classification and statistics of pesticide damage grade Grade 0 / Classification and statistics of pesticide damage grade Grade 1 / Classification and statistics of pesticide damage grade Grade 2 / Classification and statistics of pesticide damage grade Grade 3: number of plants (of 16) in this grade; for Scores: score for pesticide damage 0-100
How it was run: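 Herbicide tolerance was judged per plant on a bleaching scale (grade 0 no bleaching to grade 3 fully bleached) 7 DAT. Topramezone doses were 0, 25, 50 and 100 g ai/ha on 18-day-old T1 and wild-type plants.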

Molecule	Classification and statistics of pesticide damage grade Grade 0 (topramezone 25 g ai/ha (1x))	Classification and statistics of pesticide damage grade Grade 1 (topramezone 25 g ai/ha (1x))	Classification and statistics of pesticide damage grade Grade 2 (topramezone 25 g ai/ha (1x))	Classification and statistics of pesticide damage grade Grade 3 (topramezone 25 g ai/ha (1x))	Classification and statistics of pesticide damage grade Grade 0 (topramezone 100 g ai/ha (4x))	Classification and statistics of pesticide damage grade Grade 1 (topramezone 100 g ai/ha (4x))	Classification and statistics of pesticide damage grade Grade 2 (topramezone 100 g ai/ha (4x))	Classification and statistics of pesticide damage grade Grade 3 (topramezone 100 g ai/ha (4x))	Scores (topramezone 25 g ai/ha (1x))	Scores (topramezone 100 g ai/ha (4x))	Resistance evaluation (topramezone 25 g ai/ha (1x))	Resistance evaluation (topramezone 100 g ai/ha (4x))
B1	16	0	0	0	4	4	8	0	0	42	highly resistant_ (highly resistant plants (scores 0-15))	poorly resistant (poorly resistant plants (scores 34-67))
B2	0	0	0	16	0	0	0	16	100	100	non-resistant (non-resistant plants (scores 68-100))	non-resistant (non-resistant plants (scores 68-100))
B3	4	4	8	0	0	0	4	12	42	92	poorly resistant (poorly resistant plants (scores 34-67))	non-resistant (non-resistant plants (scores 68-100))
B4	0	0	0	16	0	0	0	16	100	100	non-resistant (non-resistant plants (scores 68-100))	non-resistant (non-resistant plants (scores 68-100))
B5	8	8	0	0	0	0	0	16	17	100	moderately resistant (moderately resistant plants (scores 16-33))	non-resistant (non-resistant plants (scores 68-100))
